Results published in patent US8344120B2, “Nucleic acid molecules encoding rage fusion proteins” (TransTech Pharma, Inc., priority 2006, dated 2013).

Tests used:
amphoterin (Ampho) = biological target: T1, amphoterin (Ampho) (Homo sapiens, UniProt P09429); experiment: In vitro ligand binding ELISA, immobilized amphoterin; conditions: ligand 5 micrograms per well; fusion protein at increasing dilutions, 37° C. one hour
T1 sequence (P09429 1-215): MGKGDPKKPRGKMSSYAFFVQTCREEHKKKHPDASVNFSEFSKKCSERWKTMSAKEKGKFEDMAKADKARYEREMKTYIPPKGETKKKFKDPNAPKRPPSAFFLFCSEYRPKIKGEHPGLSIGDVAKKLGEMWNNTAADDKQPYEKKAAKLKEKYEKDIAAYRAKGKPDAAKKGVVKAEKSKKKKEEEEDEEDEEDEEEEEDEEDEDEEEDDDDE
Method: For example, the RAGE fusion protein may be used in a binding assay to identify potential RAGE ligands. In one example embodiment of such a binding assay, a known RAGE ligand may coated onto a solid substrate (e.g., Maxisorb plates) at a concentration of about 5 micrograms per well, where each well contains a total volume of about 100 microliters (4). The plates may be incubated at 4° C. overnight to allow the ligand to absorb or bind to the substrate. Alternatively, shorter incubation periods at higher temperature (e.g., room temperature) may be used. […] The RAGE fusion protein bound to the immobilized ligand may be detected in a variety of ways. […] The bound complex may be detected by adding the alkaline phosphatase substrate, para-nitrophenylphosphate (PNPP), and measuring conversion of PNPP to para-nitrophenol (PNP) as an increase in absorbance at 405 nm. […] In the absence of ligand (i.e., coating with only BSA) there was no increase in absorbance. […] Binding was detected by the addition of an immunodetection complex containing a monoclonal mouse anti-human IgG1 diluted 1:11,000 to a final assay concentration (FAC) of 21 ng/100 μL, a biotinylated goat anti-mouse IgG diluted 1:500, to a FAC of […], and an avidin-linked alkaline phosphatase. […]

[1] = test system: S100b/RAGE-induced production of TNF-α in THP-1 cells; experiment: S100b/RAGE-induced production of TNF-α in THP-1 cells; format: cell-based; conditions: 10 μg protein, 24 hours
Description: Use of the RAGE fusion proteins of the present invention to modulate expression of the cellular effector TNF-α is shown in FIG. 10. THP-1 myeloid cells may be cultured in RPMI-1640 media supplemented with 10% FBS and induced to secrete TNF-α via stimulation of RAGE with S100b. When such stimulation occurs in the presence of a RAGE fusion protein, induction of TNF-α by S100b binding to RAGE may be inhibited.
Previous work has shown that the myeloid THP-1 cells may secrete TNF-α in response to RAGE ligands. In this assay, THP-1 cells were cultured in RPMI-1640 media supplemented with 10% FBS using a protocol provided by ATCC. […] The amount of TNF-α secreted by the THP-1 cells was measured 24 hours after the addition of the proteins to the cell culture using a commercially available ELISA kit for TNF-α (R&D Systems, Minneapolis, Minn.).

[2] = test system: HMGB1-induced TNF-α production in THP-1 cells; experiment: HMGB1-induced TNF-α production in THP-1 cells; format: cell-based; set-up: dose or concentration left out as unconfirmed; conditions: 24 hours
Method: (§1) HMGB1 has been reported to be a ligand for RAGE and the Toll-Like Receptors 2 and 4 (Park et al., J Biol Chem., 2004; 279(9):7370-7). All three of these receptors (RAGE, Toll-like receptor 2, and Toll-like receptor 4) are expressed on THP-1 cells (Parker, et al., J Immunol., 2004,172(8):4977-86.).
In this experiment, THP-1 cells were stimulated to produce TNF-α by HMGB1 ([…]) in the presence or absence of either TTP4000 or anti-RAGE antibodies. Under the conditions used in the assay, HMGB1 should be the only inducer of TNF-α.
as §1, with “HMGB 1” for “HMGB1”, “J.” for “J”
In this experiment, THP-1 cells were stimulated to produce TNF-α by HMGB1 ([…]) in the presence or absence of either TTP4000 or anti-RAGE antibodies. Under the conditions used in the assay, HMGB1 should be the only inducer of TNF-α. The amount of TNF-αsecreted by the THP-1 cells was measured 24 hours after the addition of the proteins to the cell culture using a commercially available ELISA kit for TNF-α (R&D Systems, Minneapolis, Minn.).

B1: TTP-4000: four domain RAGE fusion protein: human RAGE N-terminal sequence (to position 251) linked to human IgG Fc (γ1) without hinge; SEQ ID NO: 34/56 (protein)
chain: QNITARIGEPLVLKCKGAPKKPPQRLEWKLNTGRTEAWKVLSPQGGGPWDSVARVLPNGSLFLPAVGIQDEGIFRCQAMNRNGKETKSNYRVRVYQIPGKPEIVDSASELTAGVPNKVGTCVSEGSYPAGTLSWHLDGKPLVPNEKGVSVKEQTRRHPETGLFTLQSELMVTPARGGDPRPTFSCSFSPGLPRHRALRTAPIQPRVWEPVPLEEVQLVVEPEGGAVAPPSVFLFPPKPKDTLMISRTPEVTCVVVDVSHEDPEVKFNWYVDGVEVHNAKTKPREEQYNSTYRVVSVLTVLHQDWLNGKEYKCKVSNKALPAPIEKTISKAKGQPREPQVYTLPPSRDELTKNQVSLTCLVKGFYPSDIAVEWESNGQPENNYKTTPPVLDSDGSFFLYSKLTVDKSRWQQGNVFSCSVMHEALHNHYTQKSLSLSPGK
binding to immobilized amphoterin (increase in absorbance at 405 nm) (amphoterin (Ampho)): specifically interact | reduction of S100b induction of TNF-α ([1]; S100b 0.1 mg/ml FAC): ~70% | S100b induction of TNF-α, comparison in words ([1]; S100b 0.1 mg/ml): at least as effective in blocking S100b induction of TNF-α as is sRAGE | inhibition of HMGB1-induced TNF-α production [2]: to a greater extent than does the anti-RAGE antibody
